In article PMC4474532 (2015):

B1: BiP (natural protein)
chain: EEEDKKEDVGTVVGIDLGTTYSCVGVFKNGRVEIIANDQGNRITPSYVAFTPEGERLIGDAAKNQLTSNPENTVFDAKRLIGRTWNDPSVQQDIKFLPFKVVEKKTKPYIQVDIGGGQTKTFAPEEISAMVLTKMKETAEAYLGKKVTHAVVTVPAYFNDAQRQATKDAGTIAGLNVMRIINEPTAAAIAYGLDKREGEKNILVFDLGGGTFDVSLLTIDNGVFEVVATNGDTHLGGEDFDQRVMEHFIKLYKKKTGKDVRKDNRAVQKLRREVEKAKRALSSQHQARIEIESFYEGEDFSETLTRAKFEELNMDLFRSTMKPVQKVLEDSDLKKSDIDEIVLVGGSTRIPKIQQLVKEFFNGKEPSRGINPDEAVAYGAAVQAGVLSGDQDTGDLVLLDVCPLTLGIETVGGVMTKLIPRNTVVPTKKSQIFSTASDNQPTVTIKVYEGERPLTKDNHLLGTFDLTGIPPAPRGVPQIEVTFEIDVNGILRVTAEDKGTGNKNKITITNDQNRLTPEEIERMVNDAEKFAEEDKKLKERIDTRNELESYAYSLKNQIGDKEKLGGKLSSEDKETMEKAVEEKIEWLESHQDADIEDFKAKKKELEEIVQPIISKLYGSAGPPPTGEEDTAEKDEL

Assays:
Test in all cases: MST
[1] = molecular target: PERK luminal domain L395N (human, UniProt Q9NZJ5 105-403, L395N)
[2] = molecular target: PERK luminal domain A378N (human, UniProt Q9NZJ5 105-403, A378N)
BiP = molecular target: B1
Chain of BiP (P11021 19-654): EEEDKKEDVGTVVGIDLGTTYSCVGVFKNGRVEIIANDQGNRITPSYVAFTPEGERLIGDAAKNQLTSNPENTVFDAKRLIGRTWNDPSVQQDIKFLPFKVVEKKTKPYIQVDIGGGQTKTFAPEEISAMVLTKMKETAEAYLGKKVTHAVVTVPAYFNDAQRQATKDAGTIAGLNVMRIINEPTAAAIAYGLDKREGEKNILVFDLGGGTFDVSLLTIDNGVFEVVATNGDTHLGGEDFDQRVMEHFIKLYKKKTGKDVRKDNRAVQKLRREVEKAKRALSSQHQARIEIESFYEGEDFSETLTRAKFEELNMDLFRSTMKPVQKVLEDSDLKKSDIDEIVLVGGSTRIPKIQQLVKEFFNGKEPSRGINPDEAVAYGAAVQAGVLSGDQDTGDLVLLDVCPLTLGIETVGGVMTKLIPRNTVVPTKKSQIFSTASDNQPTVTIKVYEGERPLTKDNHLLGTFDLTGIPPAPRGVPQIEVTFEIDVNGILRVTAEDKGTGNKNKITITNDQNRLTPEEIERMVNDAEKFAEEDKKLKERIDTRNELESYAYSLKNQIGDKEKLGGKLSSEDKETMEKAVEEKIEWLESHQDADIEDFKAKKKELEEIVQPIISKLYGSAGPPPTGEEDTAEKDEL

Kd [1]	Kd [2]	Kd (BiP)	Binder
1800 nM	2300 nM		B1
		2000 nM	human PERK luminal domain (residues 105–403) (domain or fragment) LVIISTLDGRIAALDPENHGKKQWDLDVGSGSLVSSSLSKPEVFGNKMIIPSLDGALFQWDQDRESMETVPFTVESLLESSYKFGDDVVLVGGKSLTTYGLSAYSGKVRYICSALGCRQWDSDEMEQEEDILLLQRTQKTVRAVGPRSGNEKWNFSVGHFELRYIPDMETRAGFIESTFKPNENTEESKIISDVEEQEAAIMDIVIKVSVADWKVMAFSKKGGHLEWEYQFCTPIASAWLLKDGKVIPISLFDDTSYTSNDDVLEDEEDIVEAARGATENSVYLGMYRGQLYLQSSVRI
